Patent publication US20170165366A1

Molecular target: mouse TIGIT-His (SEQ ID NO: 3) (mouse) (UniProt P86176)
Assay: BLI (Octet QKe), SEC1 on AMC sensor, mouse TIGIT-His 33 to 1.22 nM, 1:1 global fit

mouse TIGIT-His (SEQ ID NO: 3) (mouse), sequence (P86176 other isoform, or with tags, fused parts or gaps limits assumed, form in doubt): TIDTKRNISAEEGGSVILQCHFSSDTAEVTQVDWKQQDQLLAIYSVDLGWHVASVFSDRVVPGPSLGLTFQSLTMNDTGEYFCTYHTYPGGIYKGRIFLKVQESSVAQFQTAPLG

B1: SEC1 mouse IgG2a N297A (antibody, V domains shown)
VH: EVQLVESGGGLTQPGKSLKLSCEASGFTFSSFTMHWVRQSPGKGLEWVAFIRSGSGIVFYADAVRGRFTISRDNAKNLLFLQMNDLKSEDTAMYYCARRPLGHNTFDSWGQGTLVTVSS
VL: DIVMTQSPSSLAVSPGEKVTMTCKSSQSLYYSGVKENLLAWYQQKPGQSPKLLIYYASIRFTGVPDRFTGSGSGTDYTLTITSVQAEDMGQYFCQQGINNPLTFGDGTKLEIKR
B1 showed a Kd of 0.32 nM, a koff of 0.0006 s⁻¹ and a kon of 1.9e+06 M⁻¹ s⁻¹.
